# Experimental data reported in US20250312444A1 (BEIJING TUO JIE BIOPHARMACEUTICAL, published 2025).
# T1: human RXFP1 receptor (human, UniProt Q9HBX9 1-757)
# T1 sequence (looked up): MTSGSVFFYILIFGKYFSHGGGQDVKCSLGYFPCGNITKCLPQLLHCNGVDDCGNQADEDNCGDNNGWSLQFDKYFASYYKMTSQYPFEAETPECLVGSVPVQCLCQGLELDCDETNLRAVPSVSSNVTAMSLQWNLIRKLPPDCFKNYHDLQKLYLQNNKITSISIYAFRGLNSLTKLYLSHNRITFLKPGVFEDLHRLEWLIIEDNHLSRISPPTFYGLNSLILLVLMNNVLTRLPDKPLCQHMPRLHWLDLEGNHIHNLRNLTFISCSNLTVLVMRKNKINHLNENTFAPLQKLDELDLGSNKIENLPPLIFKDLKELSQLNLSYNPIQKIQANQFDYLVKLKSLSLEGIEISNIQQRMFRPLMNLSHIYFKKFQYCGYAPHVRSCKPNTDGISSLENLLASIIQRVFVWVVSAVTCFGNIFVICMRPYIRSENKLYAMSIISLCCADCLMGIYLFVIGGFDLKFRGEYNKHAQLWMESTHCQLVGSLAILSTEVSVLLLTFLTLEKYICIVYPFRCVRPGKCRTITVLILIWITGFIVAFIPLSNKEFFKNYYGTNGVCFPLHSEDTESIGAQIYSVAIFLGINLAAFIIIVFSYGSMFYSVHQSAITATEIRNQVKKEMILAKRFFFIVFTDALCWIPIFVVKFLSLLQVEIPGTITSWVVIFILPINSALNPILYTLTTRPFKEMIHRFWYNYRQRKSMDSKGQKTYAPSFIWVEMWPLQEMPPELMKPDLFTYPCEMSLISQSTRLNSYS
# Biological target: T1, human RXFP1 receptor
# Assay: cell-based or functional assay
binder,measurement,value
"0051 (other, Single-chain fusion: anti-HSA VHH, linker, relaxin-2 B chain, linker, relaxin-2 A chain; also called fusion protein 0051; molecule 0051) EVQLLESGGGLVQPGGSLRLSCAASGFTFLTSCMGWFRQAPGKEREGVSSIYTVGGSTFYTNSVKGRFTISRDNSKNTLYLQMNSLRAEDTAVYYCAAGSPARCRLRDPTTFDYWGQGTLVTVSSGGGGQGGGGQGGGGQGGGGQGGGGQSWMEEVIKLCGRELVRAQIAICGMSTWSGGGSGGSGGGQLYSALANKCCHVGCTKRSLARFC","EC50 (nM), cAMP production in THP1 cells, 1% HSA",28.4 nM
same,"EC50 (nM), cAMP production in THP1 cells, without HSA",3.83 nM
